{"source": "patent US10894811B2", "about": "“Peptide inhibitors of calcium channels” (The University of North Carolina at Chapel Hill, priority 2016, dated 2021)", "molecules": {"B1": {"name": "SPLUNC1: Short palate, lung and nasal epithelium clone 1, recombinant full length protein (protein, listed as Homo sapiens)", "chain": "MFQTGGLIVFYGLLAQTMAQFGGLPVPLDQTLPLNVNPALPLSPTGLAGSLTNALSNGLLSGGLLGILENLPLLDILKPGGGTSGGLLGGLLGKVTSVIPGLNNIIDIKVTDPQLLELGLVQSPDGHRLYVTIPLGIKLQVNTPLVGASLLRLAVKLDITAEILAVRDKQERIHLVLGDCTHSPGSLQISLLDGLGPLPIQGLLDSLTGILNKVLPELVQGNVCPLVNEVLRGLDITLVHDIVNMLIHGLQFVIKV"}}, "key": {"hASMCs": {"tested_on": "hASMCs", "test": "Calcium imaging using fura-2 (thapsigargin-induced Ca2+ signaling)", "type": "cell-based, human", "procedure": "Calcium imaging: Calcium imaging using fura-2 was adapted from a previous published protocol with minor modifications (Sheridan et al., J. Biol. Chem. 288:33509 (2013)). Briefly, hASMCs were loaded with 2 μM fura-2 AM (Invitrogen) and serosal media from HBEC cultures or recombinant SPLUNC1 at 37° C. for 1 h. Cultures were washed with a standard Ringer's solution (101 mM NaCl, 12 mM NaHCO3, 1.2 mM MgCl2, 1.2 mM CaCl2, […], 24 mM HEPES, 10 mM glucose, pH 7.4) or with Ca^2+-free Ringer's solution as indicated. Cultures were then placed in the Ringer's solution, and images were collected with a 40×1.4 NA oil objective on a Nikon Ti-S inverted microscope. Fura-2 fluorescence was acquired alternately at 340 and 380 nm (emission >450 nm) using LUDL filter wheels, obtained with an Orca FLASH 4.0 CMOS camera (Hammamatsu), and controlled with HCImageLive software. Cell bodies were identified as individual regions of interest (ROIs). Background subtraction was performed using a region without the cell. Signals were converted to relative changes (F/F0) where F0 was the ratio of the average fluorescent intensity (340/380) of ROIs at 0 time point. A total of 20 cells/coverslip were recorded. ΔF/F0 represents average peak fluorescent intensity changes of three independent experiments."}, "TRPC3": {"target": "T1, TRPC3 (Homo sapiens, UniProt Q13507)", "T1 construct": "host or cells: HEK293T", "T1 sequence (Q13507 74-921 limits assumed)": "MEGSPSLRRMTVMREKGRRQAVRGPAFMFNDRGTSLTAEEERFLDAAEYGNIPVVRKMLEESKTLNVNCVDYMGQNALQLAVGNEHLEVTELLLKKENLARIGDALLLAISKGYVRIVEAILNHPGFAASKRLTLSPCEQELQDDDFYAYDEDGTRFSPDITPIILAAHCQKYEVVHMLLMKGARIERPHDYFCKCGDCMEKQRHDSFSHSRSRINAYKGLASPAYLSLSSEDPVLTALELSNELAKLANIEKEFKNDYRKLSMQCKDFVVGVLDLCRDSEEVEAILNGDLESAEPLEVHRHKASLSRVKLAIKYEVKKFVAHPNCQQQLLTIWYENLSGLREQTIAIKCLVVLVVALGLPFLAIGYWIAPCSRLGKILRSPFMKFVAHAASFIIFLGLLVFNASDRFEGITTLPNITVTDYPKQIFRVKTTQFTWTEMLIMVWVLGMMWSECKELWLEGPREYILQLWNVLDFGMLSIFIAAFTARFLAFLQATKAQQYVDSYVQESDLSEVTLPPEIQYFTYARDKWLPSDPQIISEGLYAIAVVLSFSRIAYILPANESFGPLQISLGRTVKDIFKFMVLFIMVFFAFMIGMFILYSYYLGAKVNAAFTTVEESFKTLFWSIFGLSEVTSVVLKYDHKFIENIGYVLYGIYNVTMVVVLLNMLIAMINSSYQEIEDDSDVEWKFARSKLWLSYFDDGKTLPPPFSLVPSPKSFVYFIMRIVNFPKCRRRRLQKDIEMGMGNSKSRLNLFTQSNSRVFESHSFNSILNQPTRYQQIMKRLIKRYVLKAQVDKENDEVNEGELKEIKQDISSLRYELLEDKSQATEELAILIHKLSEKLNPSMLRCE", "test": "Co-immunoprecipitation in HEK293T cell lysates (V5-SPLUNC1 / Myc-TRPC3)", "type": "binding", "details": "HEK293T cells cotransfected with V5-SPLUNC1 and Myc-TRPC3", "procedure": "(§1) DNA constructs: Yellow fluorescent protein (YFP) tagged human Orai1 and Myc tagged TRPC3 were gifts from Dr. Craig Montell (Addgene plasmid #25902) and Dr. Anjana Rao (Addgene plasmid #19756), respectively. HA tagged human Orai1 was a generous gift from Dr. Patrick G Hogan at La Jolla Institute for Allergy & Immunology. pcDNA3.1(+)-V5-SPLUNC1 was a generous gift from Dr. Colin D Bingle at the University of Sheffield.\n(§2) For immunoprecipitation, cell lysates were collected at 48 h post-transfection in Pierce® IP lysis buffer in the presence of 1× protease inhibitor cocktail (PIC) (Roche). Cell lysates were pre-cleared with protein A/G agarose beads and then incubated with 1 μg of antibodies against HA (BioLegend) or V5 (Invitrogen) with protein A/G agarose beads on a rotator at 4° C. overnight. After three washes with IP lysis buffer, immunoprecipitated complexes were eluted in sample buffer (50 mM Tris-HCl [pH 6.8], 2% sodium dodecyl sulfate (SDS), 10% glycerol, 5% (v/v) β-mercaptoethanol (BME), 0.1% bromophenol blue) by heating the samples at 95° C. for 5 min, electrophoresed through SDS-polyacrylamide gels, and subjected to immunoblot analysis."}, "Orai1 [1]": {"target": "T2, Orai1 (Homo sapiens, UniProt Q96D31)", "T2 sequence (Q96D31 whole entry)": "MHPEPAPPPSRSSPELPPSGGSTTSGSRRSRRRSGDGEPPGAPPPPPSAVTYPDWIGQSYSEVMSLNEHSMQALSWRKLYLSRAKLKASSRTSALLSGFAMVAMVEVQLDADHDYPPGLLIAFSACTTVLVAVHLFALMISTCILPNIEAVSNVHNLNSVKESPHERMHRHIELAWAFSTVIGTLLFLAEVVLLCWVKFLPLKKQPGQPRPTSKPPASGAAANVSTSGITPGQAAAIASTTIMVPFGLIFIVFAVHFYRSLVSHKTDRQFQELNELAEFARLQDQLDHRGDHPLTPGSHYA", "test": "Fluorescent (confocal) microscopy of Orai1 localization", "type": "cell-based", "set-up": "expressed in transfected cells", "details": "ASMC treated with SPLUNC1", "procedure": "Fluorescent microscopy: Human ASMs were grown on 25-mm glass coverslips for fluorescent imaging. Cells were transfected with the indicated fluorescent-labeled proteins. At 24 h post-transfection, cells were incubated with or without SPLUNC1 for 4 h, followed by methanol fixation and DAPI (1 μg/ml) staining for nucleus. For live cell imaging, cells were grown on 35-mm glass-bottom dishes (In Vivo Scientific) and transfected with the YFP-Orai1. At 24 h post-transfection, cells were incubated with SPLUNC1 and images were taken at indicated time point. All images were taken with a Leica TCS SP8 63× oil lens using the Leica Application Suite X software (Leica)."}, "Orai1 [2]": {"target": "T2, Orai1", "test": "Co-immunoprecipitation in HEK293T cell lysates (V5-SPLUNC1 / HA-Orai1)", "type": "binding", "set-up": "expressed in transfected cells; host or cells: HEK293T", "details": "HEK293T cells cotransfected with V5-SPLUNC1 and HA-Orai1", "procedure": "as §1, §2"}, "[3]": {"tested_on": "myosin light chain (MLC) phosphorylation", "test": "Immunoblot of phosphorylated myosin light chain in ASMCs", "type": "cell-based, human", "details": "basal and Ach-induced; pre-treatment with SPLUNC1", "procedure": "Antibodies, immunoprecipitation, and immunoblot analysis: Rabbit anti-Orai1, anti-HA epitope (Santa Cruz), anti-GFP, anti-phospho-myosin light chain, anti-total myosin light chain, anti-GAPDH (glyceraldehyde-3-phosphate dehydrogenase) (Cell Signaling Technology); mouse anti-V5 epitope (Life Technologies), were purchased from commercial sources. To detect protein expression in total cell lysates, cells were lysed in Pierce® IP lysis buffer with 25 mM Tris-HCl pH 7.4, 150 mM NaCl, 1% NP-40, 1 mM EDTA, 5% glycerol, followed by SDS-polyacrylamide electrophoresis and immunoblot."}}, "note": "“Also recorded” adds a separate entry of the source.", "data": [{"molecule": "B1", "values": [{"measurement": "ability of SPLUNC1 to inhibit Ca2+ signaling", "setting": "hASMCs; ASMC with Orai1 knocked down by shRNA, TG", "value": "lost"}, {"measurement": "ability to suppress Ca2+ signaling, SPLUNC1 mutants/peptides", "setting": "hASMCs; ASMCs pre-incubated with truncated SPLUNC1 peptides (FIG. 4H)", "value": "Inhibition was not different"}, {"measurement": "SR Ca2+ release", "setting": "hASMCs; TG without extracellular Ca2+ (EGTA), pre-treatment with SPLUNC1", "value": "no effect"}, {"measurement": "thapsigargin (TG)-induced Ca2+ flux (peak fura-2 ratio change)", "setting": "hASMCs; human ASMCs, co-incubated 1 h", "value": "significantly reduced; also recorded: inhibits TG induced cytosolic Ca^2+ increases in a dose-dependent manner; also recorded: suppresses cytosolic Ca^2+ elevation in the presence of TG"}, {"measurement": "SOCE (store operated Ca2+ influx)", "setting": "hASMCs; reintroduction of extracellular Ca2+ after TG, pre-treatment with SPLUNC1", "value": "significantly suppressed; also recorded: blocks store operated Ca^2+ influx in ASMCs"}, {"measurement": "co-immunoprecipitation with TRPC3", "setting": "TRPC3", "value": "but not an alternate Ca^2+ channel (TRPC3), could be co-immunoprecipitated; also recorded: does not interact with TRPC3"}, {"measurement": "cytosolic Orai1 / Orai1 internalization", "setting": "Orai1 [1]", "value": "increased; also recorded: Orai1 is internalized"}, {"measurement": "co-immunoprecipitation with Orai1", "setting": "Orai1 [2]", "value": "could be co-immunoprecipitated; also recorded: interacting with Orai1"}, {"measurement": "MLC phosphorylation", "setting": "[3]", "value": "decreased both basal and induced MLC phosphorylation; also recorded: suppressing myosin light chain (MLC) phosphorylation; also recorded: decreases MLC phosphorylation in dose dependent-manners"}]}]}
